{"source": "paper PMC9832388", "key": {"C3b [1]": {"molecular_target": "C3b (UniProt P01024)", "sequence (P01024 23-667, chain 1 of 2)": "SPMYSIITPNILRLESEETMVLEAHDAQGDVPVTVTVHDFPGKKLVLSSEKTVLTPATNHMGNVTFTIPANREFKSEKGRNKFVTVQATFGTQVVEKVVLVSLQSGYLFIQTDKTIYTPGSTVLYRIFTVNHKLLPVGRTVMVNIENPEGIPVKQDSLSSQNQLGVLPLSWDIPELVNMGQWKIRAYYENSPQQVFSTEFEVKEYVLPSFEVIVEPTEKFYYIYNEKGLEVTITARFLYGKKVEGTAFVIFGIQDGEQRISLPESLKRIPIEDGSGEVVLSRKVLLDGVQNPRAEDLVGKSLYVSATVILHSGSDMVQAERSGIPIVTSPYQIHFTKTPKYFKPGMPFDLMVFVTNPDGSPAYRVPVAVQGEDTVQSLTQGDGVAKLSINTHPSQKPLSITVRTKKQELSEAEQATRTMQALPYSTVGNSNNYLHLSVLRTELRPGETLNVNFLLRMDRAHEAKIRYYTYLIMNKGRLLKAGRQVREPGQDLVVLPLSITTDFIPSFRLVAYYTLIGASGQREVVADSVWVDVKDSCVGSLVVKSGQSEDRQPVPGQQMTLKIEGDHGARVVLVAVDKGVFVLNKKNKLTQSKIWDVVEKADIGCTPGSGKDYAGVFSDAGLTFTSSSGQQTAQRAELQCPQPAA", "sequence (P01024 749-1663, chain 2 of 2)": "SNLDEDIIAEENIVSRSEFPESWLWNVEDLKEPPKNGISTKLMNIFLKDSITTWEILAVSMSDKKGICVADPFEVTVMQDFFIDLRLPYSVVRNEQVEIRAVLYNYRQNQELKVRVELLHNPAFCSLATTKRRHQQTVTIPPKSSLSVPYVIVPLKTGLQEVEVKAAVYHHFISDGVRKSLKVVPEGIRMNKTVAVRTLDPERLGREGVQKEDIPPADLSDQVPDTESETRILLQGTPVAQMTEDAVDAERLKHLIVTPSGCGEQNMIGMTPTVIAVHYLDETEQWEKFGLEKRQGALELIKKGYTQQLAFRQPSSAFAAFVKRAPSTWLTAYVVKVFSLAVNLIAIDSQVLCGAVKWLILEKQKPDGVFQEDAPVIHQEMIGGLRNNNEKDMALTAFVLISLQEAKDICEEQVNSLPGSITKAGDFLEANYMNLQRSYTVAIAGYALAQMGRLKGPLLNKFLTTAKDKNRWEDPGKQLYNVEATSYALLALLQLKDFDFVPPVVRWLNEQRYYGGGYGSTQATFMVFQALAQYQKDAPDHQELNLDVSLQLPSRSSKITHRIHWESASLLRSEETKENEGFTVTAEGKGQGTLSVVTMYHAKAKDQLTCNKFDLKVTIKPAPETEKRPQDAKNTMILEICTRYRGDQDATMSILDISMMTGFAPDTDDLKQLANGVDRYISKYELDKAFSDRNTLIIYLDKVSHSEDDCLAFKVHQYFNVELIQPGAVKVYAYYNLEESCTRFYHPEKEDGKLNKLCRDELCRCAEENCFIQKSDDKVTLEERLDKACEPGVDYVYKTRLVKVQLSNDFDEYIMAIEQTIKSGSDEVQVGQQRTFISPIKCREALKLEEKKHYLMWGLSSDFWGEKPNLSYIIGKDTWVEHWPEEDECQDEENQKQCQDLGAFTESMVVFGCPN", "assay": "SPR; BIAcore S200; C3b (800-1000 RU) on a CM5 chip; FH1-4 variants flowed at 20 to 0.3125 µM, 90 s at 30 µL/min; steady state fit, estimated KD; done once in HBST and once in PBST (PBST shown)"}, "C3b [2]": {"molecular_target": "C3b (UniProt P01024)", "assay": "SPR; BIAcore S200; C3b (800-1000 RU) on a CM5 chip; FH1-4 variants flowed at 20 to 0.3125 µM, 90 s at 30 µL/min; steady state fit, estimated KD; done once in HBST and once in PBST (PBST shown)", "remark": "listed apart in the source"}, "C3b [3]": {"molecular_target": "C3b (UniProt P01024)"}, "[4]": {"molecular_target": "C3b:FH complex (C3b with WT FH CCP 1-4) (UniProt P01024)", "sequence (P01024 23-667, chain 1 of 3)": "as the sequence (P01024 23-667, chain 1 of 2) above", "sequence (P01024 749-1663, chain 2 of 3)": "as the sequence (P01024 749-1663, chain 2 of 2) above", "sequence (P08603 19-1231, chain 3 of 3, further chain)": "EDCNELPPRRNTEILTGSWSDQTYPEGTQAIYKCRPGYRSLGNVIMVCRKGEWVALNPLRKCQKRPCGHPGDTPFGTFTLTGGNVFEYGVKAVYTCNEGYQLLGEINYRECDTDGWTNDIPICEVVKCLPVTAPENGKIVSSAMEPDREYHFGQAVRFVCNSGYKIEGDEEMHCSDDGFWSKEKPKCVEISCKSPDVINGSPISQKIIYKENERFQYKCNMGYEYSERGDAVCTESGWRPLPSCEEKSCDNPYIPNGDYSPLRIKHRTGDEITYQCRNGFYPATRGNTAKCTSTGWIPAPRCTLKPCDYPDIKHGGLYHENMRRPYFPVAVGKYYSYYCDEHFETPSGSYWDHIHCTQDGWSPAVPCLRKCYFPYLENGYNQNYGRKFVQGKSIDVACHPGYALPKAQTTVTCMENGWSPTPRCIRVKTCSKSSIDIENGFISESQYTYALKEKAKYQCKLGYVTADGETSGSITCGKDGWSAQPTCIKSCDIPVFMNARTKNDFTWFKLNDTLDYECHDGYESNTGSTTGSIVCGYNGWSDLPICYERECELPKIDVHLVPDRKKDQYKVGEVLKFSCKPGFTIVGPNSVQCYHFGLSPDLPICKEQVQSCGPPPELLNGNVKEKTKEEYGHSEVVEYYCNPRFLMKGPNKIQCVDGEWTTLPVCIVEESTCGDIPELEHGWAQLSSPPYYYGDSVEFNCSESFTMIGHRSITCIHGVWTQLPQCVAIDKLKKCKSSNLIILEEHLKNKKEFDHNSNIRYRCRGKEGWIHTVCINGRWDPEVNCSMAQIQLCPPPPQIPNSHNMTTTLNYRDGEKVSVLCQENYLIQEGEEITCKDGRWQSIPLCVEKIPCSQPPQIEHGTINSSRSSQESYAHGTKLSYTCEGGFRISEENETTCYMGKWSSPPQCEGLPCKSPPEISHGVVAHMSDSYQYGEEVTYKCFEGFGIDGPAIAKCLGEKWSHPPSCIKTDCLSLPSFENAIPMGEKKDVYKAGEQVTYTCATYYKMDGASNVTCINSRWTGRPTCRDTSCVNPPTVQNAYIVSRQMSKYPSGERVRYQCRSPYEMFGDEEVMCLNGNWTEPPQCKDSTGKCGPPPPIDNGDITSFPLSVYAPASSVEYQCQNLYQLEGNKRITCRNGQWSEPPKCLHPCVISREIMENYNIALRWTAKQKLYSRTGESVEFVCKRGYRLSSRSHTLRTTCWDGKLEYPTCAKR", "assay": "SPR; TMC building, FI variants: FI variants on the inactive (S525A) backbone (125-15.625 nM; 62.5 nM shown) co-injected with FH1-4 at constant concentration (125 nM in the methods, 118 nM in the legend) onto thioester-coupled C3b (1000 RU); PBST + Mg2+"}, "[5]": {"molecular_target": "C3b:FH complex (C3b with WT FH CCP 1-4) (UniProt P01024)"}, "[6]": {"molecular_target": "C3b:FH complex (C3b with WT FH CCP 1-4) (UniProt P01024)", "remark": "listed apart in the source"}, "C3b with FH CCP 1-4 P26S": {"molecular_target": "C3b with FH CCP 1-4 P26S (UniProt P01024)", "sequence (P01024 23-667, chain 1 of 3)": "as the sequence (P01024 23-667, chain 1 of 2) above", "sequence (P01024 749-1663, chain 2 of 3)": "as the sequence (P01024 749-1663, chain 2 of 2) above", "sequence (P08603 19-1231 P26S, chain 3 of 3, further chain)": "as the sequence (P08603 19-1231, chain 3 of 3, further chain) above, with P8S counted along it", "assay": "SPR; TMC building, FH variants: FH1-4 (118-14.75 nM) co-injected with 118 nM inactive (S525A) FI onto C3b (1000 RU, thiol/thioester coupled) CM5 chip; PBST + 1 mM MgCl2, 25°C, 2 min at 30 µl/min"}, "[7]": {"molecular_target": "C3b with FH CCP 1-4 R166W (UniProt P01024)", "sequence (P01024 23-667, chain 1 of 3)": "as the sequence (P01024 23-667, chain 1 of 2) above", "sequence (P01024 749-1663, chain 2 of 3)": "as the sequence (P01024 749-1663, chain 2 of 2) above", "sequence (P08603 19-1231 R166W, chain 3 of 3, further chain)": "as the sequence (P08603 19-1231, chain 3 of 3, further chain) above, with R148W counted along it", "assay": "SPR; TMC building, FH variants: FH1-4 (118-14.75 nM) co-injected with 118 nM inactive (S525A) FI onto C3b (1000 RU, thiol/thioester coupled) CM5 chip; PBST + 1 mM MgCl2, 25°C, 2 min at 30 µl/min"}, "[8]": {"molecular_target": "C3b with FH CCP 1-4 R232Q (UniProt P01024)", "sequence (P01024 23-667, chain 1 of 3)": "as the sequence (P01024 23-667, chain 1 of 2) above", "sequence (P01024 749-1663, chain 2 of 3)": "as the sequence (P01024 749-1663, chain 2 of 2) above", "sequence (P08603 19-1231 R232Q, chain 3 of 3, further chain)": "as the sequence (P08603 19-1231, chain 3 of 3, further chain) above, with R214Q counted along it", "assay": "SPR; TMC building, FH variants: FH1-4 (118-14.75 nM) co-injected with 118 nM inactive (S525A) FI onto C3b (1000 RU, thiol/thioester coupled) CM5 chip; PBST + 1 mM MgCl2, 25°C, 2 min at 30 µl/min"}, "C3b with FH CCP 1-4 R83S": {"molecular_target": "C3b with FH CCP 1-4 R83S (UniProt P01024)", "sequence (P01024 23-667, chain 1 of 3)": "as the sequence (P01024 23-667, chain 1 of 2) above", "sequence (P01024 749-1663, chain 2 of 3)": "as the sequence (P01024 749-1663, chain 2 of 2) above", "sequence (P08603 19-1231 R83S, chain 3 of 3, further chain)": "as the sequence (P08603 19-1231, chain 3 of 3, further chain) above, with R65S counted along it", "assay": "SPR; TMC building, FH variants: FH1-4 (118-14.75 nM) co-injected with 118 nM inactive (S525A) FI onto C3b (1000 RU, thiol/thioester coupled) CM5 chip; PBST + 1 mM MgCl2, 25°C, 2 min at 30 µl/min"}, "C3b with FH CCP 1-4 T91S": {"molecular_target": "C3b with FH CCP 1-4 T91S (UniProt P01024)", "sequence (P01024 23-667, chain 1 of 3)": "as the sequence (P01024 23-667, chain 1 of 2) above", "sequence (P01024 749-1663, chain 2 of 3)": "as the sequence (P01024 749-1663, chain 2 of 2) above", "sequence (P08603 19-1231 T91S, chain 3 of 3, further chain)": "as the sequence (P08603 19-1231, chain 3 of 3, further chain) above, with T73S counted along it", "assay": "SPR; TMC building, FH variants: FH1-4 (118-14.75 nM) co-injected with 118 nM inactive (S525A) FI onto C3b (1000 RU, thiol/thioester coupled) CM5 chip; PBST + 1 mM MgCl2, 25°C, 2 min at 30 µl/min"}, "[9]": {"molecular_target": "C3b:FH complex (C3b with WT FH CCP 1-4) (UniProt P01024)", "assay": "SPR; TMC building, FH variants: FH1-4 (118-14.75 nM) co-injected with 118 nM inactive (S525A) FI onto C3b (1000 RU, thiol/thioester coupled) CM5 chip; PBST + 1 mM MgCl2, 25°C, 2 min at 30 µl/min"}}, "note": "Like-named read-outs stand apart in the source and are kept apart here."}
{"substance": "FH CCP 1-4 P26S (from UniProt P08603 19-1231) (domain or fragment)", "values": [{"measurement": "Kd", "setting": "C3b [1]", "value": 11.5, "unit": "µM"}]}
{"substance": "FH CCP 1-4 R166W (from UniProt P08603 19-1231) (domain or fragment)", "values": [{"measurement": "Kd", "setting": "C3b [1]", "value": 16.7, "unit": "µM"}, {"measurement": "Kd", "setting": "C3b [2]", "value": "16 to 20", "unit": "µM"}]}
{"substance": "FH CCP 1-4 R232Q (from UniProt P08603 19-1231) (domain or fragment)", "values": [{"measurement": "fluid phase cofactor activity with FI and C3b: reduction in C3b α’ chain degradation (% reduced compared to WT)", "setting": "C3b [3]", "value": 41}]}
{"substance": "FH CCP 1-4 T91S (from UniProt P08603 19-1231) (domain or fragment)", "values": [{"measurement": "Kd", "setting": "C3b [1]", "value": 9.4, "unit": "µM"}]}
{"substance": "FH CCP 1-4 WT (from UniProt P08603 19-1231) (domain or fragment)", "values": [{"measurement": "Kd", "setting": "C3b [1]", "value": 10, "unit": "µM"}]}
{"substance": "FI K441R/S525A (from UniProt P05156 19-335; P05156 340-583) (enzyme)", "values": [{"measurement": "RU of the TMC (62.5 nM FI variant with FH1-4)", "setting": "[4]", "value": 91.2, "unit": "RU"}, {"measurement": "percent of the response of inactive WT FI", "setting": "[4]", "value": 94, "unit": "%"}]}
{"substance": "FI P553S/S525A (from UniProt P05156 19-335; P05156 340-583) (enzyme)", "values": [{"measurement": "RU of the TMC (62.5 nM FI variant with FH1-4)", "setting": "[4]", "value": 62.9, "unit": "RU"}, {"measurement": "percent of the response of inactive WT FI", "setting": "[4]", "value": 65, "unit": "%"}]}
{"substance": "FI R406H/S525A (from UniProt P05156 19-335; P05156 340-583) (enzyme)", "values": [{"measurement": "RU of the TMC (62.5 nM FI variant with FH1-4)", "setting": "[4]", "value": 74.6, "unit": "RU"}, {"measurement": "percent of the response of inactive WT FI", "setting": "[4]", "value": 77, "unit": "%"}]}
{"substance": "H380R FI (from UniProt P05156 19-335; P05156 340-583) (enzyme)", "values": [{"measurement": "inhibition of the activity of WT FI in a fluid phase CA assay with increasing H380R FI (~20% at equimolar, 35% at 2-fold molar)", "setting": "[5]", "value": 35, "unit": "%"}]}
{"substance": "inactive FI (S525A FI) (from UniProt P05156 19-335; P05156 340-583) (enzyme)", "values": [{"measurement": "inhibition of C3b cleavage by WT FI in a fluid phase CA assay with increasing S525A FI (15% at equimolar, 20% at 2-fold molar)", "setting": "[6]", "value": 20, "unit": "%"}, {"measurement": "peak RU of the TMC (59 nM FH1-4 with 118 nM S525A FI)", "setting": "C3b with FH CCP 1-4 P26S", "value": 29, "unit": "RU"}, {"measurement": "peak RU of the TMC (59 nM FH1-4 with 118 nM S525A FI)", "setting": "[7]", "value": 7, "unit": "RU"}, {"measurement": "peak RU of the TMC (59 nM FH1-4 with 118 nM S525A FI)", "setting": "[8]", "value": 6, "unit": "RU"}, {"measurement": "peak RU of the TMC (59 nM FH1-4 with 118 nM S525A FI)", "setting": "C3b with FH CCP 1-4 R83S", "value": 5, "unit": "RU"}, {"measurement": "peak RU of the TMC (59 nM FH1-4 with 118 nM S525A FI)", "setting": "C3b with FH CCP 1-4 T91S", "value": 30, "unit": "RU"}, {"measurement": "RU of the TMC (118 nM FH1-4 with 118 nM inactive FI)", "setting": "[9]", "value": 60, "unit": "RU"}, {"measurement": "peak RU of the TMC (59 nM FH1-4 with 118 nM S525A FI)", "setting": "[9]", "value": 40, "unit": "RU"}]}
